Substitutions are numbered along the chain they refer to.
B1: PRT-401 (enzyme)
chain: MVTSVWTKGVTPPADFTQGEDVFHAPYVANQGWYDITKEFNGKDDLLCGAATAGNMLHWWFDQNKEYIEAYLKKHPEKQKIMFGDQELLDVRKAINTKGSQKNSELFNYFRDKAFPNLSARRLGVMPDLVLDMFINGYYLNVTKTQTTDVNRTYQEKDKRGGIFDAVFTRGDQSKLLTSRHDFKEKGLKEISDLIKQELTEGKALGLSHTYANVRINHVINLWGADFDSDGNLKAIYVTDSDSNASIGMKKYFVGVNSAGKVAISAKEIKEDNIGAQVLGLFTLSTGQDIWNQTN
B2: PRT-409 (enzyme)
chain: B1 chain with E39T, D172V
B3: PRT-410 (enzyme)
chain: B1 chain with E39T, S243T
B4: PRT-402 (enzyme)
chain: B1 chain with E39T, I216L
B5: PRT-443 (enzyme)
chain: MSQTEDSESLQRLRDIEDFQAEKKKQNVVYTKWLDGVDVKDHDFRKIVDGNIAYYATPLLNGRGFYDINKDFNRDSDKCAAAVAANMFHYWLDRNRDNVDRFLRQNPEKHGIIELPDEQLKLSDFLNTYESDDGYRDKSKLFDFISNNFNGPVWTDKLLDNYINGYAYNYKYGRTIEDPTKNTSKINFFKEVFNEKILTNNHSIRNQNEFSVLLSEALYTGKAIGLSYGPAGLRHSLGHIISVWGADLDADGNVVAIYVTDSDDKKLTIGDERVGLKRYKISTDDEGRLRLTAYEETHNTGGQIRGLWTLDTGKQAWADYFDKTEQTGTDQAEQ
B6: PRT-444 (enzyme)
chain: B5 chain with E118G, G151K
B7: PRT-417 (enzyme)
chain: MTITSVWTKGVTPPTPEDFRYNNEDVLHAPYVANQGWYDITKTFDGKDNLLCGAATAGNMLHWWFDQNKEEIERYLKKHPEKQKIIFNNQELFDVKAAIDTKDSQTNSKLFNYFRDKAFPNLSARQLGVMPDLVLDMFINGYYLNLGKTQSTDVNRPYQDKDKRGGIFDAVFTRGDQTTLLTARHDLKNKGLNEISDLIKQELTEGKALALSHTYANVRINHVINLWGADFDAEGELIAIYVTDSDANASIGMKKYFVGVNANGKVAISAKKIEGDNIGAQVLGLFTLSTGQDIWQKLS
B8: PRT-425 (enzyme)
chain: B7 chain with N121G, E236N
B9: PRT-418 (enzyme)
chain: B7 chain with E236N, F257A
B10: PRT-426 (enzyme)
chain: B7 chain with M130F, E236N
B11: PRT-376 (enzyme)
chain: MVTSVWTKGVTPPTNFTYGEDVLHAPYVANQGWYDITKLFNGKDDLLCGAATAGNMLHWWFDQNKEQIENYLKKHPEKQKINFNGEQMFDVKEAIDTKDSQLDSKLFEYFKEKAFPYLSTKHLGVFPDHVIDMFINGYRLSLTNHGPTPVKRGSKDPRGGIFDAVFTRGDQSKLLTNRHDFKEKTLKEISDLIKQELTEGKALGISHTYANVRINHVINLWGADFDAEGNLEAIYVTDSDSNASIGMKKYFVGVNSNGKVAISAKEIEEDNIGAQVLGLFTLSTGQDIWNQTN
B12: PRT-379 (enzyme)
chain: B11 chain with L39T, T143L
B13: PRT-387 (enzyme)
chain: B11 chain with L39T, N257S
B14: PRT-386 (enzyme)
chain: B11 chain with L39T, Y235A
B15: PRT-394 (enzyme)
chain: B11 chain with L39T, N242E
B16: PRT-385 (enzyme)
chain: B11 chain with L39T, V212G
B17: PRT-378 (enzyme)
chain: B11 chain with L39T, Y117S
B18: PRT-393 (enzyme)
chain: B11 chain with L39T, S241T
B19: PRT-280 (enzyme)
chain: MVTSVWTKGVTPPAKFTQGEDVFHAPYVANQGWYDITKTFNGKDDLLCGAATAGNMLHWWFDQNKEKIEAYLKKHPDKQKIMFGDQELLDVRKVINTKGDQTNSELFNYFRDKAFPNLSARRIGVMPDLVLDMFINGYYLNVYKTQTTDVNRTYQEKDRRGGIFDAVFTRGDQSKLLTSRHDFKEKNLKEISDLIKKELTEGKALGLSHTYANVGINHVINLWGADFDSNGNLKAIYVTDSDSNASIGMKKYFVGVNSSGKVAISAKEIKEDNIGAQVLGLFTLSTGQDSWNQTN
B20: PRT-288 (enzyme)
chain: B19 chain with V28D, T39E, G215R, N217G, F253G, S259A

These binders were tested against pooled human IgG (human IgG1, 2, 3 and 4) (human) (assay: cell-based or functional assay).
Note: test concentration or dose not given here.

Point of comparison: B15, “Enzyme Activity Endpoint Assay: Fab′2” value 482 ng/µL. Against it:
- B1 — higher, 624 ng/µL
- B2 — higher, 658 ng/µL
- B3 — higher, 567 ng/µL
- B4 — higher, 530 ng/µL
- B5 — lower, 17 ng/µL
- B6 — higher, 494 ng/µL
- B7 — lower, 193 ng/µL
- B8 — higher, 568 ng/µL
- B9 — lower, 382 ng/µL
- B10 — higher, 508 ng/µL
- B11 — higher, 496 ng/µL
- B12 — higher, 599 ng/µL
- B13 — higher, 605 ng/µL
- B14 — higher, 519 ng/µL
- B16 — higher, 494 ng/µL
- B17 — lower, 477 ng/µL
- B18 — higher, 663 ng/µL
- B19 — lower, 423 ng/µL
- B20 — lower, 439 ng/µL

Point of comparison: B2, “Enzyme Activity Endpoint Assay: Fc” value 313 ng/µL. Against it:
- B1 — higher, 329 ng/µL
- B3 — lower, 297 ng/µL
- B4 — higher, 342 ng/µL
- B5 — lower, 0 ng/µL
- B6 — higher, 321 ng/µL
- B7 — lower, 27 ng/µL
- B8 — lower, 27 ng/µL
- B9 — lower, 283 ng/µL
- B10 — lower, 283 ng/µL
- B11 — higher, 325 ng/µL
- B12 — higher, 370 ng/µL
- B13 — higher, 366 ng/µL
- B14 — higher, 337 ng/µL
- B15 — higher, 323 ng/µL
- B16 — lower, 265 ng/µL
- B17 — higher, 319 ng/µL
- B18 — higher, 317 ng/µL
- B19 — lower, 305 ng/µL
- B20 — higher, 334 ng/µL

Point of comparison: B8, “Enzyme Activity Endpoint Assay: IgG” value 169 ng/µL. Against it:
- B1 — lower, 128 ng/µL
- B2 — lower, 0 ng/µL
- B3 — higher, 206 ng/µL
- B4 — lower, 0 ng/µL
- B5 — higher, 431 ng/µL
- B6 — lower, 0 ng/µL
- B7 — higher, 324 ng/µL
- B9 — higher, 288 ng/µL
- B10 — higher, 243 ng/µL
- B11 — lower, 0 ng/µL
- B12 — lower, 0 ng/µL
- B13 — lower, 0 ng/µL
- B14 — lower, 0 ng/µL
- B15 — lower, 0 ng/µL
- B16 — lower, 103 ng/µL
- B17 — lower, 0 ng/µL
- B18 — lower, 0 ng/µL
- B19 — higher, 319 ng/µL
- B20 — higher, 348 ng/µL

Point of comparison: B19, “Enzyme Activity Endpoint Assay: scIgG” value 0 ng/µL. Against it:
- B1 — the same, 0 ng/µL
- B2 — the same, 0 ng/µL
- B3 — the same, 0 ng/µL
- B4 — higher, 188 ng/µL
- B5 — higher, 535 ng/µL
- B6 — higher, 286 ng/µL
- B7 — the same, 0 ng/µL
- B8 — the same, 0 ng/µL
- B9 — higher, 149 ng/µL
- B10 — the same, 0 ng/µL
- B11 — higher, 196 ng/µL
- B12 — higher, 226 ng/µL
- B13 — higher, 242 ng/µL
- B14 — higher, 240 ng/µL
- B15 — higher, 209 ng/µL
- B16 — higher, 56 ng/µL
- B17 — higher, 207 ng/µL
- B18 — the same, 0 ng/µL
- B20 — the same, 0 ng/µL
